This data set concerns the target T1, mSNAPc#2 SNAP190-Y389A (Homo sapiens, UniProt Q5SXM2;Q92966;Q16533;O75971 1-505;1-411;1-268;1-98, Y389A).
T1 sequence 1: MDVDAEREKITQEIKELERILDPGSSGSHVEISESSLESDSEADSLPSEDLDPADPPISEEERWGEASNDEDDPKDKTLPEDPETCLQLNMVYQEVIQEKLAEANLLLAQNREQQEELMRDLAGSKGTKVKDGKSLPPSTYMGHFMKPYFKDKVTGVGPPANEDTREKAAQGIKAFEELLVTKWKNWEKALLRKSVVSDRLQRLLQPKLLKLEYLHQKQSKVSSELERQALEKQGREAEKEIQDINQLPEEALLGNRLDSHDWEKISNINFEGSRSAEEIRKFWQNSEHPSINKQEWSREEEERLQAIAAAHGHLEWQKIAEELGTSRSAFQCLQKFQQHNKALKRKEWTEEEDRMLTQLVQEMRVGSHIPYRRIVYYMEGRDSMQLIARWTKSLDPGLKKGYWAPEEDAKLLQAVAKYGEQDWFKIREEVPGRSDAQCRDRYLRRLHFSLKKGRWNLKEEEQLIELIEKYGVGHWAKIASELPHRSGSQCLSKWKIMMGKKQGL
T1 sequence 2: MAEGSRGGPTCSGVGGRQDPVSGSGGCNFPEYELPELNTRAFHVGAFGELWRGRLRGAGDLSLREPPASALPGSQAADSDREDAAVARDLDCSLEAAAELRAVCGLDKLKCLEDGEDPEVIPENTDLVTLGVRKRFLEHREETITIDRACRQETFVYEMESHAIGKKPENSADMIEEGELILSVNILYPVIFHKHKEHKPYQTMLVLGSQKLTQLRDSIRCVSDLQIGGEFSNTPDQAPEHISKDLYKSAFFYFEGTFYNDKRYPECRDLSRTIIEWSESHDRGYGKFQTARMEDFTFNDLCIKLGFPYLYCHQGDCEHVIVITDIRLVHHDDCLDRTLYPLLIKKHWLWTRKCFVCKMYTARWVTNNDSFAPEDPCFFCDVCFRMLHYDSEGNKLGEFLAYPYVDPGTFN
T1 sequence 3: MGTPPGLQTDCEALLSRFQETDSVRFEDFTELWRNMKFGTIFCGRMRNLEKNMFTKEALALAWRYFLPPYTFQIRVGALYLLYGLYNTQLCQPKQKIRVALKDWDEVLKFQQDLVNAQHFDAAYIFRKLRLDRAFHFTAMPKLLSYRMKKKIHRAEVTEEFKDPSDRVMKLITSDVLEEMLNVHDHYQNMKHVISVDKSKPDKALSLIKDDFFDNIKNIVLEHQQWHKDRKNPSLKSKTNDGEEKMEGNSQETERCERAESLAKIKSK
T1 sequence 4: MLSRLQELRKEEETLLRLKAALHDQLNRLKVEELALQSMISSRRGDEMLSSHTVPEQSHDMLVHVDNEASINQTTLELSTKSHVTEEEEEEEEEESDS
Put plainly: SPR; EMSA: 100 mM KCl, 25 mM HEPES-K pH 7.6, 12.5 mM MgCl2, 10 uM ZnCl2, 0.1 mM EDTA, 10% glycerol, 3 mM DTT, 0.5 mM PMSF, 50 nM DNA, RT 30 min; SPR: 100 mM KCl, 12.5 mM MgCl2, 10 uM ZnCl2, 0.1 mM EDTA, 0.05% P20, 25 C. The note with it: protein: recombinant; tags: as P1; copies: 1;1;1;1. Background: Surface plasmon resonance follows binding to a sensor surface in real time, without labels.

B1: 25 bp hU6-1 PSE (SPR) (dsDNA)
DNA 1: TGCTTACCGTAACTTGAAAGTATTT
DNA 2: AAATACTTTCAAGTTACGGTAAGCA
Regarding B1, the Kd was found to be 1.08 µM.

Usually Kd stands for the constant that tells how readily two partners part at equilibrium.

The values are drawn from publication PMC9652321, “Structural basis of human SNAPc recognizing proximal sequence element of snRNA promoter”.
